Assay results: patent US20150344570A1 (published 2015)

T1: FcγRIIa H (FcγRIIa type H, His at position 131), extracellular domain with C-terminal His tag (human, UniProt P12318 34-217)
T1 construct: extracellular domain; expressed in FreeStyle293 cells; also called FcgRIIa H; 2aH; not shown: His tag attached to the C terminus
T1 sequence (looked up): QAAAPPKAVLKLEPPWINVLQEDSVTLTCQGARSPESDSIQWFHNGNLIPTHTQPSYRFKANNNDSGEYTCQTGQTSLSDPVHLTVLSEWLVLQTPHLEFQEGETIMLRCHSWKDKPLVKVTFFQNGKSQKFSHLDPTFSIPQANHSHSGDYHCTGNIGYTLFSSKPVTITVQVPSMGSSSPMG

T2: FcγRIIb, extracellular domain with C-terminal His tag (human, UniProt P31994 43-217)
T2 construct: extracellular domain; expressed in FreeStyle293 cells; also called FcgRIIb; 2b; not shown: His tag attached to the C terminus
T2 sequence (looked up): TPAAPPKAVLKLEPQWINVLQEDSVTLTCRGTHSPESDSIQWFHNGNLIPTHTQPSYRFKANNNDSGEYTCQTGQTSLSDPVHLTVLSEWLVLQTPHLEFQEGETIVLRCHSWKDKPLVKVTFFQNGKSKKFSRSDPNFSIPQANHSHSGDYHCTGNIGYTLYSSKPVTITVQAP

T3: FcγRIIb (human, UniProt P31994 43-217)
T3 construct: extracellular domain; Soluble extracellular domain with a C-terminal His tag, expressed in FreeStyle293 cells; also called FcgRIIb; 2b; not shown: His tag attached to the C terminus
T3 sequence (looked up): T2 sequence (looked up)

B1: GpH7-A5/GpH7-B3 variant S239_08L/GpL16-k0 (antibody, human IgG1, kappa)
heavy 1: not shown
heavy 2: not shown
light: DIVMTQSPLSLPVTPGEPASISCQASESLVHSNRNTYLHWYLQKPGQSPQLLIYKVSNRFSGVPDRFSGSGSGTDFTLKISRVEAEDVGVYYCSQNTHVPPTFGQGTKVEIERTVAAPSVFIFPPSDEQLKSGTASVVCLLNNFYPREAKVQWKVDNALQSGNSQESVTEQDSKDSTYSLSSTLTLSKADYEKHKVYACEVTHQGLSSPVTKSFNRGEC
notes: Heterodimerized antibody (He Ab): mutation in the GpH7-B3 chain only; also called He Ab
B2: GpH7-A5/GpH7-B3 variant S239_09D/GpL16-k0 (antibody, human IgG1, kappa)
heavy 1: not shown
heavy 2: not shown
light: B1 light
notes: as for B1
B3: GpH7-A5/GpH7-B3 variant S239_10E/GpL16-k0 (antibody, human IgG1, kappa)
heavy 1: not shown
heavy 2: not shown
light: B1 light
notes: as for B1
B4: GpH7-A5/GpH7-B3 variant S239_18N/GpL16-k0 (antibody, human IgG1, kappa)
heavy 1: not shown
heavy 2: not shown
light: B1 light
notes: as for B1
B5: GpH7-A5/GpH7-B3 variant S239_20W/GpL16-k0 (antibody, human IgG1, kappa)
heavy 1: not shown
heavy 2: not shown
light: B1 light
notes: as for B1
B6: GpH7-A5/GpH7-B3 variant V266_01G/GpL16-k0 (antibody, human IgG1, kappa)
heavy 1: not shown
heavy 2: not shown
light: B1 light
notes: as for B1
B7: GpH7-A5/GpH7-B3 variant V266_04F/GpL16-k0 (antibody, human IgG1, kappa)
heavy 1: not shown
heavy 2: not shown
light: B1 light
notes: as for B1
B8: GpH7-A5/GpH7-B3 variant V266_06M/GpL16-k0 (antibody, human IgG1, kappa)
heavy 1: not shown
heavy 2: not shown
light: B1 light
notes: as for B1
B9: GpH7-A5/GpH7-B3 variant V266_07I/GpL16-k0 (antibody, human IgG1, kappa)
heavy 1: not shown
heavy 2: not shown
light: B1 light
notes: as for B1
B10: GpH7-A5/GpH7-B3 variant V266_08L/GpL16-k0 (antibody, human IgG1, kappa)
heavy 1: not shown
heavy 2: not shown
light: B1 light
notes: as for B1
B11: GpH7-A5/GpH7-B3 variant V266_09D/GpL16-k0 (antibody, human IgG1, kappa)
heavy 1: not shown
heavy 2: not shown
light: B1 light
notes: as for B1
B12: GpH7-A5/GpH7-B3 variant V266_10E/GpL16-k0 (antibody, human IgG1, kappa)
heavy 1: not shown
heavy 2: not shown
light: B1 light
notes: as for B1
B13: GpH7-A5/GpH7-B3 variant V266_12R/GpL16-k0 (antibody, human IgG1, kappa)
heavy 1: not shown
heavy 2: not shown
light: B1 light
notes: as for B1
B14: GpH7-A5/GpH7-B3 variant V266_13S/GpL16-k0 (antibody, human IgG1, kappa)
heavy 1: not shown
heavy 2: not shown
light: B1 light
notes: as for B1
B15: GpH7-A5/GpH7-B3 variant V266_14T/GpL16-k0 (antibody, human IgG1, kappa)
heavy 1: not shown
heavy 2: not shown
light: B1 light
notes: as for B1
B16: GpH7-A5/GpH7-B3 variant V266_15Y/GpL16-k0 (antibody, human IgG1, kappa)
heavy 1: not shown
heavy 2: not shown
light: B1 light
notes: as for B1
B17: GpH7-A5/GpH7-B3 variant P238_03V/GpL16-k0 (antibody, human IgG1, kappa)
heavy 1: not shown
heavy 2: not shown
light: B1 light
notes: Heterodimerized anti-glypican-3 IgG1; the mutation is in the GpH7-B3 chain only; also called He Ab

biological target: T1, FcγRIIa H (FcγRIIa type H, His at …); assay: SPR (Biacore); He/Con_2aH divided by He/Con_2b (FcγRIIa H against FcγRIIb)

He_2aH/2b (IIaH/IIb) [ratio]	Binder
0.75	B1
0.56	B2
0.62	B3
0.79	B4
0.78	B5
0.71	B6
0.44	B7
0.33	B8
0.69	B9
0.44	B10
0.63	B11
0.66	B12
-1.05	B13
0.5	B14
0.53	B15
0.37	B16

biological target: T4, FcγRIIIa (human, UniProt P08637 17-208); assay: SPR; He/Con_3a (FcγRIIIa) divided by He/Con_2b (FcγRIIb)
T4 construct: extracellular domain; Soluble extracellular domain with a C-terminal His tag; also called FcgRIIIa; 3a; not shown: His tag attached to the C terminus
T4 sequence (P08637 17-208): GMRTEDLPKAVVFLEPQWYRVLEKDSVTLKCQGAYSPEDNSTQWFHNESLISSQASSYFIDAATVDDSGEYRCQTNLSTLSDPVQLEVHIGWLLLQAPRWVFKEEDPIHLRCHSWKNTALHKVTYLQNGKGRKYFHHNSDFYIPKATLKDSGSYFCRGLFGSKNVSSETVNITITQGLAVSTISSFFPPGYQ

He_3a/2b (IIIa/IIb) [ratio]	Binder
0.36	B17

biological target: T1, FcγRIIa H (FcγRIIa type H, His at …); assay: SPR (Biacore), antibody captured on antigen peptide chip, FcγR as analyte; relative to GpH7-A5/GpH7-B3/GpL16-k0 = 100

He/Con_2aH (relative binding activity)	Binder
105 % of HeCon Ab (= 100)	B1
114 % of HeCon Ab (= 100)	B2
112 % of HeCon Ab (= 100)	B3
94.2 % of HeCon Ab (= 100)	B4
35.2 % of HeCon Ab (= 100)	B5
36.7 % of HeCon Ab (= 100)	B6
25.3 % of HeCon Ab (= 100)	B7
83.9 % of HeCon Ab (= 100)	B8
106 % of HeCon Ab (= 100)	B9
104 % of HeCon Ab (= 100)	B10
6.4 % of HeCon Ab (= 100)	B11
10.1 % of HeCon Ab (= 100)	B12
1.1 % of HeCon Ab (= 100)	B13
27 % of HeCon Ab (= 100)	B14
43.3 % of HeCon Ab (= 100)	B15
18.1 % of HeCon Ab (= 100)	B16

biological target: T2, FcγRIIb, extracellular domain with …; assay: as above

He/Con_2b (relative binding activity)	Binder
140 % of HeCon Ab (= 100)	B1
206 % of HeCon Ab (= 100)	B2
181 % of HeCon Ab (= 100)	B3
119 % of HeCon Ab (= 100)	B4
45.1 % of HeCon Ab (= 100)	B5
51.5 % of HeCon Ab (= 100)	B6
57.6 % of HeCon Ab (= 100)	B7
251 % of HeCon Ab (= 100)	B8
152 % of HeCon Ab (= 100)	B9
236 % of HeCon Ab (= 100)	B10
10.1 % of HeCon Ab (= 100)	B11
15.2 % of HeCon Ab (= 100)	B12
-1.1 % of HeCon Ab (= 100)	B13
54.4 % of HeCon Ab (= 100)	B14
82.3 % of HeCon Ab (= 100)	B15
49.4 % of HeCon Ab (= 100)	B16

biological target: T3, FcγRIIb; assay: SPR (Biacore), antibody captured on chip, FcγR as analyte

He/Con_2b	Binder
120 relative binding, GpH7-A5/GpH7-B3/GpL16-k0 = 100	B17

biological target: T4, FcγRIIIa; assay: as above

He/Con_3a	Binder
43.8 relative binding, GpH7-A5/GpH7-B3/GpL16-k0 = 100	B17
